The text below walks through data of paper PMC12430135, “A Unique Trimeric Assembly of Human Dishevelled 1 PDZ Domain in Crystal: Implication of Homo- and Hetero-Oligomerization During Wnt Signaling Process” (Molecules, 2025).

The target of data set [1] is Dvl PDZ PDZ (Homo sapiens) (UniProt O14640). Conditions: cited from earlier work.
Data set [2] deals with the molecule itself. The data set is described as follows: crystal structure; hDvl1-PDZ at 8-9.5 mg/ml; vapor diffusion at 20 °C; 0.1 M sodium citrate pH 5.6, 0.5 M ammonium sulfate, 1.0 M lithium sulfate, 0.01 M glutathione, 0.01 M glutathione disulfide; 2.4 Å.

Consider “Dvl C-terminus C-terminus (from UniProt O14640)”, for which the Kd in data set [1] was 7 µM.

B1: PDZ domain of human Dishevelled 1 (hDvl1-PDZ), residues 246-340 with CW338, 339AT (domain or fragment, UniProt O14640 246-340, looked up)
chain: SLNIVTVTLNMERHHFLGISIVGQSNDRGDGGIYIGSIMKGGAVAADGRIEPGDMLLQVNDVNFENMSNDDAVRVLREIVSQTGPISLTVAKATD
notes: Dishevelled 1 (Dvl1), human, PDZ domain, residues 246-340, with two amino acid substitutions (CW338, 339AT); 15N-labelled (M9 medium) for NMR; Calculated molecular weight of the monomer printed as 10,754; also called human Dvl1-PDZ; hDvl1-PDZ1
Consider B1, for which the “stoichiometry N” value in data set [2] is 3.
